{"source": "the DeepSol protein solubility set"}
{"assay": "soluble on expression in E. coli; label from the status in PepcDB or PDB records"}
{"sequence": "IPLPEQPGGSSDFIAFTDKAKLTFTTSRPMKMVYTLDETEPTLTSTPYTVPLEFAQTGLLKIRTVTAGGKMSPVRRIRVEKQPFNMSMEVPAPKPGLTIRTAYGDLYDVPDLQQVASWEVGTVSSLEEIMHGKEKITSPEVLERRVVEATGYVLIPEDGVYEFSTENNEFWIDNVKLIDNVGEVKKFSRRNSSRALQKGYHPIKTIWVGAIQGGWPTYWNYSRVMIRLKGEEKFKPISSDMLFQ", "soluble on expression in E. coli": "not soluble"}
{"sequence": "IPRFGVKTEQEDVLAKELEDVNKWGLHVFRIAELSGNRPLTVIMHTIFQERDLLKTFKIPVDTLITYLMTLEDHYHADVAYHNNIHAADVVQSTHVLLSTPALEAVFTDLEILAAIFASAIHDVDHPGVSNQFLINTNSELALMYNDSSVLENHHLAVGFKLLQEENCDIFQNLTKKQRQSLRKMVIDIVLATDMSKHMNLLADLKTMVETKKVTSSGVLLLDNYSDRIQVLQNMVHCADLSNPTKPLQLYRQWTDRIMEEFFRQGDRERERGMEISPMCDKHNASVEKSQVGFIDYIVHPLWETWADLVHPDAQDILDTLEDNREWYQSTIPQSPSPAPDDPEEGRQGQTEKFQFELTLE", "soluble on expression in E. coli": "soluble"}
{"sequence": "IQEHAIDLSQKSALVIDEELYLPELSLDTLKGLETLAPFGMNNKKPIFLLRDFTVKQVRTMGQNGAHLKLKVAQEQAVFDLLAFNYGSLVTEFQQAQHLELAVTLSVNRWNGNTSLQ", "soluble on expression in E. coli": "not soluble"}
{"sequence": "IRRKINANVYDKVVLYAPTWRGIHGKATLDIEKLKNDLEKLADQDCHIVFRGHHMIEKLVSEQNISGITIVPSEIDTNELLGAIDILITDYSSIAFDFFVMNRPVIYYAYDIEQYNNERGLYFPLNELPGTVCFNDVELLNTLSGYLRNEIYFDASKGIDKFCKNDDGSVCGKVIEWFFF", "soluble on expression in E. coli": "not soluble"}
{"sequence": "ISNHPAPEYWCSIAYFEMDVQVGETFKVPSSCPIVTVDGYVDPSGGDRFCLGQLSNVHRTEAIERARLHIGKGVQLECKGEGDVWVRCLSDHAVFVQSYYLDREAGRAPGDAVHKIYPSAYIKVFDLRQCHRQMQQQAATAQAAAAAQAAAVAGNIPGPGSVGGIAPAISLSAAAGIGVDDLRRLCILRMSFVKGWGPDYPRQSIKETPCWIEIHLHRALQLLDEVLHTMPIADPQPLD", "soluble on expression in E. coli": "soluble"}
{"sequence": "IVGGRRARPHAWPFMVSLQLRGGHFCGATLIAPNFVMSAAHCVANVNVRAVRVVLGAHNLSRREPTRQVFAVQRIFENGYDPVNLLNDIVILQLNGSATINANVQVAQLPAQGRRLGNGVQCLAMGWGLLGRNRGIASVLQELNVTVVTSLCRRSNVCTLVRGRQAGVCFGDSGSPLVCNGLIHGIASFVRGGCASGLYPDAFAPVAQFVNWIDSIIQ", "soluble on expression in E. coli": "soluble"}
{"sequence": "IVVYTDREVYGAVGSQVTLHCSFWSSEWVSDDISFTWRYQPEGGRDAISIFHYAKGQPYIDEVGTFKERIQWVGDPSWKDGSIVIHNLDYSDNGTFTCDVKNPPDIVGKTSQVTLYVFEKVPTR", "soluble on expression in E. coli": "soluble"}
{"sequence": "KAIYNRNLGYSDGAGAVLALKKKGHQNACKIAGCELWLKIIERYSREKSFYLVGGKPEVIEETIQKLRKDFPRINIVGYRDGYLKGNDDEVLIEDIAAKKPDVVFVAMGSPKQELLMERMQRVHPNAIYQGLGGSFDVYTGRVERAPEWWIRHNLEFAYRLIKQPSRIKRQIHLVRFLFRVLTNRI", "soluble on expression in E. coli": "not soluble"}
{"sequence": "KAPLDEIADDSFWSDETLVKYYVNDLYSEISVDGLQLQENRSDNSVSAQRDKYRASWFKFNYDMVSASDPQDDDVWEDYYVKVRKCNRFFERIGTSTIEESEKSRLTGEVHFLRAMFYFEMVKRYGGVILLDKVLTMEDNWEIPRSSEKECYDFILEDLKKATEMLPASYGSREKGRATKGAAYALKSRVELYDKRYEDVIKSCAEVYKLGYELVDGTTPEKYRSIWWTTNKDNKEIIFDVQYKSPDVYNNMMVCNMVTYINDKYGDRGWGGLGPTQELIDAFEMADGTPATQYSQAPADQVFDINTCGIYEGREPRFYANIVFHGSQIFFNADKGAVTVDRYLMDTPDKGDGSLTGYNVWKWIDYDNYNYPYAGAGSPDFSTNWIILRYAEIYLNDAEARLETGDVEGARKAVNMIRQRVGLPDLTESDPEKLRELIRKERRIEFAFEEQRFYDVRRWKIGPETQTTLHGVRFVSPTEFKVTKTDIRTWNDRLYLTPVPHDEIVRSSVLKQNLGY", "soluble on expression in E. coli": "soluble"}
{"sequence": "KAPLRDMRFVLNEVFEVSRLWAQLPALAEVVDAETAAAILEEAGKVTAGTIAPLNRPGDEEGCQWNAGAVSTPAGFPEAYRTYAEGGWVGVGGDPAYGGMGMPKVISAQVEELVNSANLSFGLYPMLTAGACLALNAHASDELKDKYLPNMYAGIWAGSMCLTEPHAGTDLGIIRTRAEPQADGSYKISGTKIFITGGEHDLTENIIHLVLAKLPDAPAGPKGISLFLVPKVLVNADGSLGEKNSLGCGSIEHKMGIKASATCVMNFDGATGWLVGEVNKGLAAMFTMMNYERLGVGIQGLATGERSYQSAIEYARERIQSRAPTGPVAKDKAADPIIVHPDVRRMLLTMKALNEGGRAFSSYVAMQLDTAKYSEDAVTRKRAEELVALLTPVAKAFLTDMGLETTIHGQQIFGGHGFIREWGQEQLVRDCRITQIYEGTNGIQALDLVGRKVIGSGGAFSRHFTDEIKAFVASADEALGEFSKPLAAAVENLEELTAWLLDRAKGNPNEIGAASVEYLHVFGYTAYAYMWALMARTALAKQGEDDFYASKLGTARFYFARLLPRIHSLSASVRAGS", "soluble on expression in E. coli": "not soluble"}
{"sequence": "KAVIDIDAATKIMCSNAKAISLNEVEKNEIISKYREITAKKSERAELKEVEPIPLDWPSDLTLPPLPESTNDYVWAGKRKELDDYPRKQLIIDGLSIVIPTYNRAKILAITLACLCNQKTIYDYEVIVADDGSKENIEEIVREFESLLNIKYVRQKDYGYQLCAVRNLGLRAAKYNYVAILDCDMAPNPLWVQSYMELLAVDDNVALIGPRKYIDTSKHTYLDFLSQKSLINEIPEIITNNQVAGKVEQNKSVDWRIEHFKNTDNLRLCNTPFRFFSGGNVAFAKKWLFRAGWFDEEFTHWGGEDNEFGYRLYREGCYFRSVEGAMAYHQEPPGKENETDRAAGKNITVQLLQQKVPYFYRKKEKIESATLKRVPLVSIYIPAYNCSKYIVRCVESALNQTITDLEVCICDDGSTDDTLRILQEHYANHPRVRFISQKNKGIGSASNTAVRLCRGFYIGQLDSDDFLEPDAVELCLDEFRKDLSLACVYTTNRNIDREGNLISNGYNWPIYSREKLTSAMICHHFRMFTARAWNLTEGFNESISNAVDYDMYLKLSEVGPFKHINKICYNRVLHGENTSIKKLDIQKENHFKVVNESLSRLGIKKYKYSPLTNLNECRKYTWEKI", "soluble on expression in E. coli": "soluble"}
{"sequence": "KDCASDGTLSAVGSLETPEKKQSESSRGRKRKAENQNESSQGKSIGGRGHKISDYFEYQGGNGSSPVRGIPPAIRSPQNSHSHSTPSSSVRPNSPSPTALAFGDHPIVQPKQLSFKIIQTDLTMLKLAALESNKIQDLEKKEGRIDDLLRANCDLRRQIDEQQKLLEKYKERLNKCISMSKKLLIEKSTQEKLSSREKSMQDRLRLGHFTTVRHGASFTEQWTDGFAFQNLVKQQEWVNQQREDIERQRKLLAKRKPPTANNSQAPSTNSEPKQRKNKAVNGAENDPFVRPNLPQLLTLAEYHEQEEIFKLRLGHLKKEEAEIQAELERLERVRNLHIRELKRINNEDNSQFKDHPTLNERYLLLHLLGRGGFSEVYKAFDLYEQRYAAVKIHQLNKSWRDEKKENYHKHACREYRIHKELDHPRIVKLYDYFSLDTDTFCTVLEYCEGNDLDFYLKQHKLMSEKEARSIVMQIVNALRYLNEIKPPIIHYDLKPGNILLVDGTACGEIKITDFGLSKIMDDDSYGVDGMDLTSQGAGTYWYLPPECFVVGKEPPKISNKVDVWSVGVIFFQCLYGRKPFGHNQSQQDILQENTILKATEVQFPVKPVVSSEAKAFIRRCLAYRKEDRFDVHQLANDPYLLPHMRRSNSSGNLHMAGLTASPTPPSSSIITY", "soluble on expression in E. coli": "soluble"}
{"sequence": "KDETVGVGVLSEPHARLLEIAKEEVKKQHIELRIVEFTNYVALNEAVMRGDILMNFFQHVPHMQQFNQEHNGDLVSVGNVHVEPLALYSRTYRHVSDFPAGAVIAIPNDSSNEARALRLLEAAGFIRMRAGSGLFATVEDVQQNVRNVVLQEVESALLPRVFDQVDGAVINGNYAIMAGLSARRDGLAVEPDASAYANVLVVKRGNEADARVQAVLRALCGGRVRTYLKERYKGGEVAPAL", "soluble on expression in E. coli": "soluble"}
{"sequence": "KDFVSDVLPTIAECYHHLGQEDELVEFLRACIDKKAGVSAELMLAQLVAHHESVGAAQELLTKQLLKNPTMKGFYRLIDYHIAEAEDGRAKDSLSTLQAMVGEQLKVKPHYRCRKCGFSTHSLYWHCPSCKGWGTIKPIRGLDGE", "soluble on expression in E. coli": "not soluble"}
{"sequence": "KDIGSLTLALEQLKEKLRLKGYFDEENKLPKPHFPKRVAVITSQNSAAWADMKKIASKRWPMCELVCINTLMQGEGCVQSVVESIVYADSFHDTK", "soluble on expression in E. coli": "not soluble"}
{"sequence": "KDRSIIAMGAWLEVLSEEKDGNRLARHHEHGKIWKKPTRHEDIADFFPFGNPIHNNTMIMRRSVIDGGLRYNTERDWAEDYQFWYDVSKLGRLAYYPEALVKYRLHANQVSSKYSIRQHEIAQGIQKTARNDFLQSMGFKTRFDSLEYRQIKAVAYELLEKHLPEEDFERARRFLYQCFKRTDTLPAGAWLDFAADGRMRRLFTLRQYFGILHRLLKNR", "soluble on expression in E. coli": "not soluble"}
{"sequence": "KEDYDRRSGKVSEPAPQATEEEDKVEVEPEDNGISSVADMSDGKESIAPKGHAVKPDEGAHSAKKTYKIQILSSTTKLKNGDKRLKGYKVVIEQRGGRFFYLTGAVSSEDEARHLRKKVRKSFPDAYIVVYEAGKRVREIY", "soluble on expression in E. coli": "not soluble"}
{"sequence": "KEEELVSDEEIGVKISLTGLKGGHSGVDIHLGRANANKLMFRFLKEAVGFYGARLAWVEGGSLRNAIPREAFAVITIQEEEAEAVWELVSDYQDLFRKEFSGIEENIKFEASRIECPRMIIPEEIQDCLINAVEACVNGPQSMLQDFPGTVESSSNLALITAKEGSISVRFLVRSSSESHKMWVASAIESVFSLAGARVEFDASYNGWQPNIQSHILEVMSKVFEEYYGQKPEVQVMHAGLECGIIQGVMPDMDMISVGPELQSPHSPDERIHIESVARTWEVLVKVLERV", "soluble on expression in E. coli": "not soluble"}
{"sequence": "KEENNFINLYTVKNPLKCKIVDKINLVRPNSPNEVYHLEINHNGLFKYLEGHTCGIIPYYNELDNNPNNQINKDHNIINTTNHTNHNNIALSHIKKQRCARLYSISSSNNMENLSVAIKIHKYEQTENAPNITNYGYCSGFIKNLKINDDIYLTGAHGYFNLPNDAIQKNTNFIFIATGTGISPYISFLKKLFAYDKNNLYNRNSNYTGYITIYYGVYNEDSILYLNELEYFQKMYPNNINIHYVFSYKQNSDATSFYVQDEIYKRKTEFLNLFNNYKCELYICGLKSIRYKVMDILKSHDQFDEKKKKRVHVEVY", "soluble on expression in E. coli": "soluble"}
{"sequence": "KEKFNYYIGANIAADKNEVTKITLGGQNLMISGYSAHGAGGRGINMFAEGHPMSYFNLIETDGLFRSAEEIANYKNKDGELIQPAAQVGDVRYKDWNGDGKINTDDQHDVGSPFPDFTFGIRLGGEWNNFDFNLFFDGMVGNKIYNYPRYRLESGNFNGNMSTVLANSWRPDNQNTDIPRFSKTDGADNKWAYTDRWLEDGSYIRLKTLDIGYTLPKVLTKKIKLENVRIYTSMENLFTLTKYSGYTPDLGESSVAGVAYNVFSRGIDQGRYPLPRTISFGIQVNL", "soluble on expression in E. coli": "not soluble"}
{"sequence": "KELKDSYVEYTLLYDMIANRIGIDEVVAENGTLRLMKNQVWAYDSLPHMLIAGGTGGGKTYFLLTIIEALLKSDAELFILDPKNADLADLGTVMPHVYSQKEEISACVEDFYERMIARSKAMKEMPNYKPGENYAYLGLPPNFLIFDEYVAYMGANRFPTS", "soluble on expression in E. coli": "not soluble"}
{"sequence": "KEMKYVVDTSVVISGRVTEMLESGEIKGTIIVPEAVMAELEAQANFGKMTGFQGLSEIEKLTKLAKDKGFEVIFAGERPKLEHIRLAKGGEIDNLIREVAAEFDAVLVTSDRVQHLVARAKGIETIYVRPRVVRPENTRIMSFFTP", "soluble on expression in E. coli": "not soluble"}
